From the supplement of paper PMC7877785
± gives the uncertainty stated by the source.

Experiment: self-splicing fitness, log relative to wild type (ln ratio); higher = more splicing; Tetrahymena group I intron in knt gene, E. coli kanamycin selection, DiMSum; sequences stand for … in CUCUCU…GGAGGGAAAAGUUAUCAGGCAUGCACCUGGUAGCUAGUCUUUAAACCAAUAGAUUGCAUCGGUUUAAAAGGCAAGACCGUCAAAUUGCGGGAAAGGGGUCAACAGCCGUUCAGUACCAAGUCUCAGGGGAAACUUUGAGAUGGCCUUGCAAAGGGUAUGGUAAUAAGCUGACGGACAUGGUCCUAACCACGCAGCCAAGUCCUAAGUCAACAGAUCUUCUGUUGAUAUGGAUGCAGUUCACAGACUAAAUGUCGGUCGGGGAAGAUGUAUUCUUCUCAUAAGAUAUAGUCGGACCUCUCCUUAAUGGGAGCUAGCGGAUGAAGUGAUGCAACACUGGAGCCGCUGGGAACUAAUUUGUAUGCGAAAGUAUAUUGAUUAGUUUUGGAGUACUCGUGGUCG
How it was run: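 Colonies from six replicate transformations of E. coli BL21(DE3) were pooled and amplicon-sequenced on an Illumina HiSeq 2500. The library placed an intron with all eight P1ex-region nucleotides randomised inside the knt kanamycin-resistance gene on pET-22b(+), and cells grew overnight at 37°C or 30°C on LB agar with or without 25 μg/mL kanamycin (plus 100 μg/mL carbenicillin, 50 μM IPTG, 0.2% rhamnose). Fitness is the DiMSum error-weighted combination of wild-type-normalised replicate fold changes, kanamycin versus none.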

Sequence	self-splicing fitness (ln) (30 °C)	self-splicing fitness (ln) (37 °C)
CUACAGCAAUAUUACGACUG	-1.86 ± 0.087	-0.44 ± 0.1
CUACAGCAAUAUUACGAGAG	-2.79 ± 0.16	-2.21 ± 0.18
CUACAGCAAUAUUACGAUAC	-3.74 ± 0.19	-2.58 ± 0.18
CUACAGCAAUAUUACGAUUA	-2.88 ± 0.16	-1.5 ± 0.15
CUACAGCAAUAUUACGCUCA	-4.47 ± 0.42	-2.6 ± 0.39
CUACAGCAAUAUUACGCUGG	-3.11 ± 0.097	-2.66 ± 0.15
CUACAGCAAUAUUACGGAAA	-4.58 ± 0.46	-2.9 ± 0.33
CUACAGCAAUAUUACGGAGC	-3.83 ± 0.14	-3.14 ± 0.17
CUACAGCAAUAUUACGGAGU	-3.21 ± 0.13	-2.89 ± 0.16
CUACAGCAAUAUUACGGCAA	-3.24 ± 0.24	-2.79 ± 0.23
CUACAGCAAUAUUACGGCCG	-0.378 ± 0.091	-0.0396 ± 0.11
CUACAGCAAUAUUACGGCCU	-4.36 ± 0.33	-1.68 ± 0.21
CUACAGCAAUAUUACGGUAU	-2.43 ± 0.08	-1.31 ± 0.096
CUACAGCAAUAUUACGGUGA	-1.61 ± 0.081	-0.453 ± 0.092
CUACAGCAAUAUUACGUAAC	-3.34 ± 0.16	-2.03 ± 0.21
CUACAGCAAUAUUACGUAGU	-3.43 ± 0.14	-2.49 ± 0.2
CUACAGCAAUAUUACGUAUG	-2.21 ± 0.09	-1.35 ± 0.091
CUACAGCAAUAUUACGUGAU	-2.01 ± 0.063	-1.18 ± 0.085
CUAGAGCAAUAUUACGAACG	0.208 ± 0.12	0.617 ± 0.14
CUAGAGCAAUAUUACGACUA	-1.97 ± 0.12	-1.26 ± 0.15
CUAGAGCAAUAUUACGCCCA	-3.13 ± 0.33	–
CUAGAGCAAUAUUACGCCGA	–	-2.06 ± 0.43
CUAGAGCAAUAUUACGCGCG	-0.479 ± 0.11	0.603 ± 0.16
CUAGAGCAAUAUUACGGAAC	-1.38 ± 0.17	–
CUAGAGCAAUAUUACGGAGU	-4.15 ± 0.33	-2.87 ± 0.43

Sequence	self-splicing fitness (ln) (30 °C)	self-splicing fitness (ln) (37 °C)
CUAGAGCAAUAUUACGGAUU	–	-3.03 ± 0.43
CUAGAGCAAUAUUACGGGUA	-3.53 ± 0.36	-2.3 ± 0.36
CUAGAGCAAUAUUACGGUAG	-0.666 ± 0.12	-0.0273 ± 0.15
CUAGAGCAAUAUUACGUAGG	-1.04 ± 0.1	1 ± 0.14
CUAGAGCAAUAUUACGUGAU	-1.85 ± 0.09	-0.696 ± 0.1
CUAGAGCAAUAUUACGUGUG	-0.455 ± 0.055	0.162 ± 0.08
CUAGAGCAAUAUUACGUUAA	-3.73 ± 0.24	-1.89 ± 0.28
CUAUAGCAAUAUUACGACGU	-3.85 ± 0.37	-1.96 ± 0.3
CUAUAGCAAUAUUACGAGAC	-1.7 ± 0.37	–
CUAUAGCAAUAUUACGAUGA	-1.92 ± 0.16	-1.3 ± 0.17
CUAUAGCAAUAUUACGCACA	-2.35 ± 0.27	-1.89 ± 0.25
CUAUAGCAAUAUUACGCAUG	-2.02 ± 0.093	-0.942 ± 0.095
CUAUAGCAAUAUUACGCCAA	–	-1.68 ± 0.49
CUAUAGCAAUAUUACGCUCG	-1.74 ± 0.12	-0.741 ± 0.14
CUAUAGCAAUAUUACGCUGC	-3.11 ± 0.36	–
CUAUAGCAAUAUUACGCUUG	-2.62 ± 0.25	-2.14 ± 0.26
CUAUAGCAAUAUUACGGAAA	-2.82 ± 0.2	-2.06 ± 0.42
CUAUAGCAAUAUUACGGAUC	-3.75 ± 0.4	-2.31 ± 0.25
CUAUAGCAAUAUUACGGCGG	-0.513 ± 0.12	-0.641 ± 0.14
CUAUAGCAAUAUUACGGCUG	-1.02 ± 0.12	-0.165 ± 0.15
CUAUAGCAAUAUUACGGGAU	-3.92 ± 0.25	-0.972 ± 0.16
CUAUAGCAAUAUUACGGGUC	-3.19 ± 0.29	-2.05 ± 0.28
CUAUAGCAAUAUUACGGGUG	-0.36 ± 0.061	0.369 ± 0.085
CUAUAGCAAUAUUACGGUCA	-1.82 ± 0.19	-1.7 ± 0.24
CUAUAGCAAUAUUACGGUGA	-3.35 ± 0.18	-2.59 ± 0.23
